Key:
DR5-IgG = target: T1, DR5-IgG (human, UniProt O14763 56-184); test: spot ELISA, phage on coated protein
T1 construct: also called Apo-2-IgG; not shown: IgG part; prepared as in WO98/51793, not described here

BSA = target: T2, BSA (UniProt P02769 25-607); test: spot ELISA, phage on coated protein
T2 construct: Control protein of the spot ELISA
T2 sequence (P02769 25-607 limits assumed): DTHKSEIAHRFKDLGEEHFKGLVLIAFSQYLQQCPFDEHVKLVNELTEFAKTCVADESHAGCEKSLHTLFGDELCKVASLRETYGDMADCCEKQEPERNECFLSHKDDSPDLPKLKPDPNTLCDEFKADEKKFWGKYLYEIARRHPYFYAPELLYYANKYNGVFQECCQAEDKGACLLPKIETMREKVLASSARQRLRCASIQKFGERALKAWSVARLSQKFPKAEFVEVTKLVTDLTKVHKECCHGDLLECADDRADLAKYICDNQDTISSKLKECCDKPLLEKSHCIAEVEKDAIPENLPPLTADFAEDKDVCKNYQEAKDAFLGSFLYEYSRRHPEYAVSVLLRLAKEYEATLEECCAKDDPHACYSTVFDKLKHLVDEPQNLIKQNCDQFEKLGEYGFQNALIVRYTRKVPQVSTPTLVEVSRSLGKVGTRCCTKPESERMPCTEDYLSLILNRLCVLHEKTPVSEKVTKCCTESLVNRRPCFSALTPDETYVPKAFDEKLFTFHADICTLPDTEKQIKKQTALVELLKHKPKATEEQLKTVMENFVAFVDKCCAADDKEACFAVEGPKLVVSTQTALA

T1 sequence (O14763 56-184): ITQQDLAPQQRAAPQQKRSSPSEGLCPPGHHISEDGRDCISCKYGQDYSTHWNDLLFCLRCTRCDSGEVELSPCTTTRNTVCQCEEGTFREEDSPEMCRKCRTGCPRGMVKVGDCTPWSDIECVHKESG

Binder | binding result (DR5-IgG) | binding result (BSA)
DR4-selective phage clone 8 (ligand, also called DR4-8) SEETISTVQEKQQNISPLVRERGPQRVAAHITGTRGRSNTLSSPNSKNEKALGRKINSWESSRSGHSFLSNLHLRNGELVIHEKGFYYIYSQTAFRFSEEIKEVTRNDKQMVQYIYKWTDYPDPILLMKSARNSCWSKDAEYGLYSIYQGGIFELKENDRIFVSVTNEHLIDMDHEASFFGAFLVG | no binding | no binding
DR4-selective phage clone 9 (ligand, also called DR4-9) SEETISTVQEKQQNISPLVRERGPQRVAAHITGTRGRSNTLSSPNSKNEKALGRKINSWESSRSGHSFLSNLHLRNGELVIHEKGFYYIYSQTAFRFSEEIKERTRNDKQMVQYIYKWTDYPDPILLMKSARNSCWSKDAEYGLYSIYQGGIFELKENDRIFVSVTNEHLIDMDHEASFFGAFLVG | no binding | no binding

From patent US20120165267A1 (Genentech, published 2012)
